Measured values from publication PMC9482650, “Quantitative fragmentomics allow affinity mapping of interactomes” (Nature Communications, 2022).
Substitutions are numbered along the chain they refer to.

What follows are binders tested against DLG4_3, P78352 (assay: holdup assay). Conditions: plain residues with an end cap or a label only (N-terminal biotin on a linker: ado-ado).
DLG4_3, P78352, sequence (P78352 306-403): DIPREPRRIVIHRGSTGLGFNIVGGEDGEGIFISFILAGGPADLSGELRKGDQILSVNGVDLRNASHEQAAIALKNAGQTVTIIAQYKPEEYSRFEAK
Set-up: key: below the threshold = too weak to quantify, mostly under pKd 3.1 to 4
With DDPSTAETVL [ABCA7, Q8IZY2] the pKd was “below the threshold”.
In the case of HLRARKSEWV [GJD4, Q96KN9], the pKd is reported as “below the threshold”.

Each binder was assayed against T1, ARHGAP21, Q5T5U3 (assay: holdup assay). Conditions: plain residues with an end cap or a label only (N-terminal biotin on a linker: ado-ado).
T1 sequence (Q5T5U3 45-169, limits assumed, looked up): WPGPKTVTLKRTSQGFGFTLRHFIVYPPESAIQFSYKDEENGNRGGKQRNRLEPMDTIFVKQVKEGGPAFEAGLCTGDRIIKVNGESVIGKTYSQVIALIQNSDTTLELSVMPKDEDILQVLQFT
Set-up: key: below the threshold = too weak to quantify, mostly under pKd 3.1 to 4
A pKd of 3.8 was found for DDPSTAETVL [ABCA7, Q8IZY2] in this work.
A pKd of 3.56 was found for HLRARKSEWV [GJD4, Q96KN9] in this work.

These binders were tested against Inadl_3, Q8NI35 (assay: holdup assay). Conditions: plain residues with an end cap or a label only (N-terminal biotin on a linker: ado-ado).
Inadl_3, Q8NI35, sequence (Q8NI35 359-469): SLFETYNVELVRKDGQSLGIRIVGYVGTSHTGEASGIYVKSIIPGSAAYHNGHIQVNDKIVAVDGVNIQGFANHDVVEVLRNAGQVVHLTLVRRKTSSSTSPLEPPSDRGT
Set-up: key: below the threshold = too weak to quantify, mostly under pKd 3.1 to 4
A pKd of 3.73 was found for DDPSTAETVL [ABCA7, Q8IZY2] in this work.
HLRARKSEWV [GJD4, Q96KN9] was tested, and the pKd was “below the threshold”.

The binders below were run against LNX1_2, Q8TBB1 (assay: holdup assay). Conditions: plain residues with an end cap or a label only (N-terminal biotin on a linker: ado-ado).
LNX1_2, Q8TBB1, sequence (Q8TBB1 371-470): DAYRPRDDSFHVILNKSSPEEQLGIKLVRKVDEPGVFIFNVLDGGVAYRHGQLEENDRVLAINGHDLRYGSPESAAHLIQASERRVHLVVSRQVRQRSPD
Set-up: key: below the threshold = too weak to quantify, mostly under pKd 3.1 to 4
DDPSTAETVL [ABCA7, Q8IZY2] was tested, and the pKd was “below the threshold”.
A pKd of 3.75 was found for HLRARKSEWV [GJD4, Q96KN9] in this work.

These binders were tested against Inadl_6, Q8NI35 (assay: holdup assay). Conditions: plain residues with an end cap or a label only (N-terminal biotin on a linker: ado-ado).
Inadl_6, Q8NI35, sequence (Q8NI35 1058-1167): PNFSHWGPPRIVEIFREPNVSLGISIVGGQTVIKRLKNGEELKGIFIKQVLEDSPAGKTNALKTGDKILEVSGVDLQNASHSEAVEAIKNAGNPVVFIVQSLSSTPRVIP
Set-up: key: below the threshold = too weak to quantify, mostly under pKd 3.1 to 4
A pKd of 3.98 was found for DDPSTAETVL [ABCA7, Q8IZY2] in this work.
With HLRARKSEWV [GJD4, Q96KN9] the pKd was “below the threshold”.

These binders were tested against T2, LIN7C, Q9NUP9 (assay: holdup assay). Conditions: plain residues with an end cap or a label only (N-terminal biotin on a linker: ado-ado).
T2 sequence (Q9NUP9 88-185, limits assumed, looked up): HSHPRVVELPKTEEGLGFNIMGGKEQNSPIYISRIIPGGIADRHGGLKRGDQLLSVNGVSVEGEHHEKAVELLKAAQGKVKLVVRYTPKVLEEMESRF
Set-up: key: below the threshold = too weak to quantify, mostly under pKd 3.1 to 4
With DDPSTAETVL [ABCA7, Q8IZY2] the pKd was “below the threshold”.
In the case of HLRARKSEWV [GJD4, Q96KN9], the pKd is reported as “below the threshold”.

These binders were tested against T3, NHERF3_4, Q5T2W1 (assay: holdup assay). Conditions: plain residues with an end cap or a label only (N-terminal biotin on a linker: ado-ado).
T3 sequence (Q5T2W1 373-468, limits assumed, looked up): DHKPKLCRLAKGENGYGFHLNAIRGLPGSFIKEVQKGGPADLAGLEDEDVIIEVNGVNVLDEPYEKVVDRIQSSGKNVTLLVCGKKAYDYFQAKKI
Set-up: key: below the threshold = too weak to quantify, mostly under pKd 3.1 to 4
With DDPSTAETVL [ABCA7, Q8IZY2] the pKd was “below the threshold”.
In the case of HLRARKSEWV [GJD4, Q96KN9], the pKd is reported as “below the threshold”.

What follows are binders tested against T4, PDZRN3_1, Q9UPQ7 (assay: holdup assay). Conditions: plain residues with an end cap or a label only (N-terminal biotin on a linker: ado-ado).
T4 sequence (Q9UPQ7 244-349, limits assumed, looked up): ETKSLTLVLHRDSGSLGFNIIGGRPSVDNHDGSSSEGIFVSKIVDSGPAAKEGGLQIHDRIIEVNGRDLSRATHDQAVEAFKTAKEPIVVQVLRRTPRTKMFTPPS
Set-up: key: below the threshold = too weak to quantify, mostly under pKd 3.1 to 4
A pKd of 4.09 was found for DDPSTAETVL [ABCA7, Q8IZY2] in this work.
With HLRARKSEWV [GJD4, Q96KN9] the pKd was “below the threshold”.

Each binder was assayed against T5, PDZD2_2, O15018 (assay: holdup assay). Conditions: plain residues with an end cap or a label only (N-terminal biotin on a linker: ado-ado).
T5 sequence (O15018 329-429, limits assumed, looked up): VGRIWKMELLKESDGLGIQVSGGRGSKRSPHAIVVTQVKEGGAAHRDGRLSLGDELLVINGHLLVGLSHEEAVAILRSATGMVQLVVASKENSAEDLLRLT
Set-up: key: below the threshold = too weak to quantify, mostly under pKd 3.1 to 4
For DDPSTAETVL [ABCA7, Q8IZY2], the pKd was “below the threshold”.
A pKd of 5.81 was found for HLRARKSEWV [GJD4, Q96KN9] in this work.

The binders below were run against T6, LIN7B, Q9HAP6 (assay: holdup assay). Conditions: plain residues with an end cap or a label only (N-terminal biotin on a linker: ado-ado).
T6 sequence (Q9HAP6 88-185, limits assumed, looked up): T2 sequence (Q9NUP9 88-185, limits assumed, looked up) with S2A, E13D, I35V, I40V, H65Q, K79S, K89R, S96A
Set-up: key: below the threshold = too weak to quantify, mostly under pKd 3.1 to 4
A pKd of 3.89 was found for DDPSTAETVL [ABCA7, Q8IZY2] in this work.
A pKd of 3.81 was found for HLRARKSEWV [GJD4, Q96KN9] in this work.

Each binder was assayed against T7, LNX2_3, Q8N448 (assay: holdup assay). Conditions: plain residues with an end cap or a label only (N-terminal biotin on a linker: ado-ado).
T7 sequence (Q8N448 463-564, limits assumed, looked up): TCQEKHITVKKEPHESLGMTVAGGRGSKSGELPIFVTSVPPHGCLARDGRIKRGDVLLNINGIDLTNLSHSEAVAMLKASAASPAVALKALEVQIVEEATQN
Set-up: key: below the threshold = too weak to quantify, mostly under pKd 3.1 to 4
For DDPSTAETVL [ABCA7, Q8IZY2], the pKd was “below the threshold”.
HLRARKSEWV [GJD4, Q96KN9] was tested, and the pKd was “below the threshold”.

The binders below were run against T8, HTRA4, P83105 (assay: holdup assay). Conditions: plain residues with an end cap or a label only (N-terminal biotin on a linker: ado-ado).
T8 sequence (P83105 378-476, limits assumed, looked up): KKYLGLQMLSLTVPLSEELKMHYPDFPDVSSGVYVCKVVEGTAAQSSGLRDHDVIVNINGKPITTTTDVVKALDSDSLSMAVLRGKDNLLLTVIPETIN
Set-up: key: below the threshold = too weak to quantify, mostly under pKd 3.1 to 4
In the case of DDPSTAETVL [ABCA7, Q8IZY2], the pKd is reported as “below the threshold”.
A pKd of 4.51 was found for HLRARKSEWV [GJD4, Q96KN9] in this work.

These binders were tested against T9, SNTG2, Q9NY99 (assay: holdup assay). Conditions: plain residues with an end cap or a label only (N-terminal biotin on a linker: ado-ado).
T9 sequence (Q9NY99 68-166, limits assumed, looked up): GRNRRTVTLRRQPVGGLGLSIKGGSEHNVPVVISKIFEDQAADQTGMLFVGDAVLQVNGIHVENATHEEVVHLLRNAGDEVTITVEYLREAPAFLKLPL
Set-up: key: below the threshold = too weak to quantify, mostly under pKd 3.1 to 4
A pKd of 4.19 was found for DDPSTAETVL [ABCA7, Q8IZY2] in this work.
For HLRARKSEWV [GJD4, Q96KN9], the pKd was “below the threshold”.

These binders were tested against SCRIB_2, Q14160 (assay: holdup assay). Conditions: plain residues with an end cap or a label only (N-terminal biotin on a linker: ado-ado).
SCRIB_2, Q14160, sequence (Q14160 857-960): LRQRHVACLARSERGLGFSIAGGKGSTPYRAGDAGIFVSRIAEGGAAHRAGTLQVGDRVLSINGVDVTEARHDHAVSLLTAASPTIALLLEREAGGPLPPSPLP
Set-up: key: below the threshold = too weak to quantify, mostly under pKd 3.1 to 4
With DDPSTAETVL [ABCA7, Q8IZY2] the pKd was “below the threshold”.
HLRARKSEWV [GJD4, Q96KN9] was tested, and the pKd was “below the threshold”.

These binders were tested against DLG1_3, Q12959 (assay: holdup assay). Conditions: plain residues with an end cap or a label only (N-terminal biotin on a linker: ado-ado).
DLG1_3, Q12959, sequence (Q12959 457-571): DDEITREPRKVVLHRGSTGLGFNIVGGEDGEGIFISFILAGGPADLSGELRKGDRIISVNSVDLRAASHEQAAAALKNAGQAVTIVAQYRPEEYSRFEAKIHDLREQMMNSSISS
Set-up: key: below the threshold = too weak to quantify, mostly under pKd 3.1 to 4
DDPSTAETVL [ABCA7, Q8IZY2] was tested, and the pKd was “below the threshold”.
For HLRARKSEWV [GJD4, Q96KN9], the pKd was “below the threshold”.

Each binder was assayed against LNX1_3, Q8TBB1 (assay: holdup assay). Conditions: plain residues with an end cap or a label only (N-terminal biotin on a linker: ado-ado).
LNX1_3, Q8TBB1, sequence (Q8TBB1 500-596): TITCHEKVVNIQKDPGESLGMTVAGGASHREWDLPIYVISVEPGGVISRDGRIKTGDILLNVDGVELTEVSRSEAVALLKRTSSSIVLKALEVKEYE
Set-up: key: below the threshold = too weak to quantify, mostly under pKd 3.1 to 4
With DDPSTAETVL [ABCA7, Q8IZY2] the pKd was “below the threshold”.
HLRARKSEWV [GJD4, Q96KN9] was tested, and the pKd was “below the threshold”.

Each binder was assayed against MAGI2_4, Q86UL8 (assay: holdup assay). Conditions: plain residues with an end cap or a label only (N-terminal biotin on a linker: ado-ado).
MAGI2_4, Q86UL8, sequence (Q86UL8 772-865): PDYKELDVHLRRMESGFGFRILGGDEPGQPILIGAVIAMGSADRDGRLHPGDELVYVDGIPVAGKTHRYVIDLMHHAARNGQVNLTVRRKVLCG
Set-up: key: below the threshold = too weak to quantify, mostly under pKd 3.1 to 4
In the case of DDPSTAETVL [ABCA7, Q8IZY2], the pKd is reported as “below the threshold”.
A pKd of 3.71 was found for HLRARKSEWV [GJD4, Q96KN9] in this work.

The binders below were run against T10, APBA2_2, Q99767 (assay: holdup assay). Conditions: plain residues with an end cap or a label only (N-terminal biotin on a linker: ado-ado).
T10 sequence (Q99767 654-744, limits assumed, looked up): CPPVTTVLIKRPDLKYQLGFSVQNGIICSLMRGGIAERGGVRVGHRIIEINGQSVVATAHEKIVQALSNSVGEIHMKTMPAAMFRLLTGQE
Set-up: key: below the threshold = too weak to quantify, mostly under pKd 3.1 to 4
DDPSTAETVL [ABCA7, Q8IZY2] was tested, and the pKd was “below the threshold”.
HLRARKSEWV [GJD4, Q96KN9] was tested, and the pKd was “below the threshold”.

The binders below were run against T11, GRIP1_4, Q9Y3R0 (assay: holdup assay). Conditions: plain residues with an end cap or a label only (N-terminal biotin on a linker: ado-ado).
T11 sequence (Q9Y3R0 467-571, limits assumed, looked up): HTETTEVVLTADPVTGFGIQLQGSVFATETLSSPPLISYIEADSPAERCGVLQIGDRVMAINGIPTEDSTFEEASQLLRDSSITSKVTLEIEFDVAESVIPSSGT
Set-up: key: below the threshold = too weak to quantify, mostly under pKd 3.1 to 4
In the case of DDPSTAETVL [ABCA7, Q8IZY2], the pKd is reported as “below the threshold”.
HLRARKSEWV [GJD4, Q96KN9] was tested, and the pKd was “below the threshold”.

Each binder was assayed against T12, SNTB1, Q13884 (assay: holdup assay). Conditions: plain residues with an end cap or a label only (N-terminal biotin on a linker: ado-ado).
T12 sequence (Q13884 107-205, limits assumed, looked up): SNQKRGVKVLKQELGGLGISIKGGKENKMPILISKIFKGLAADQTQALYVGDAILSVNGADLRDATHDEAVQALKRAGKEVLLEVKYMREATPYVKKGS
Set-up: key: below the threshold = too weak to quantify, mostly under pKd 3.1 to 4
A pKd of 4.87 was found for DDPSTAETVL [ABCA7, Q8IZY2] in this work.
For HLRARKSEWV [GJD4, Q96KN9], the pKd was “below the threshold”.

These binders were tested against TJP1_3, Q07157 (assay: holdup assay). Conditions: plain residues with an end cap or a label only (N-terminal biotin on a linker: ado-ado).
TJP1_3, Q07157, sequence (Q07157 416-512): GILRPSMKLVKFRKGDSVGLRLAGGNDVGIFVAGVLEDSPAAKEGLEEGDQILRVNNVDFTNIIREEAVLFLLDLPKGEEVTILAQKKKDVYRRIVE
Set-up: key: below the threshold = too weak to quantify, mostly under pKd 3.1 to 4
In the case of DDPSTAETVL [ABCA7, Q8IZY2], the pKd is reported as “below the threshold”.
A pKd of 4.67 was found for HLRARKSEWV [GJD4, Q96KN9] in this work.

What follows are binders tested against FRMPD2_1, Q68DX3 (assay: holdup assay). Conditions: plain residues with an end cap or a label only (N-terminal biotin on a linker: ado-ado).
FRMPD2_1, Q68DX3, sequence (Q68DX3 770-861): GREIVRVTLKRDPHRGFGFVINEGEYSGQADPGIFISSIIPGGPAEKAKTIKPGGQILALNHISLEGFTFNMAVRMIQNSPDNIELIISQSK
Set-up: key: below the threshold = too weak to quantify, mostly under pKd 3.1 to 4
With DDPSTAETVL [ABCA7, Q8IZY2] the pKd was “below the threshold”.
A pKd of 4.24 was found for HLRARKSEWV [GJD4, Q96KN9] in this work.

Each binder was assayed against DLG1_2, Q12959 (assay: holdup assay). Conditions: plain residues with an end cap or a label only (N-terminal biotin on a linker: ado-ado).
DLG1_2, Q12959, sequence (Q12959 314-412): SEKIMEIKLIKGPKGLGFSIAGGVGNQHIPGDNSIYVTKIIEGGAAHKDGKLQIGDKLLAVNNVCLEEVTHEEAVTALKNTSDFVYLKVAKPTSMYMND
Set-up: key: below the threshold = too weak to quantify, mostly under pKd 3.1 to 4
A pKd of 3.78 was found for DDPSTAETVL [ABCA7, Q8IZY2] in this work.
A pKd of 4.18 was found for HLRARKSEWV [GJD4, Q96KN9] in this work.

The binders below were run against LAP2, Q96RT1 (assay: holdup assay). Conditions: plain residues with an end cap or a label only (N-terminal biotin on a linker: ado-ado).
LAP2, Q96RT1, sequence (Q96RT1 other isoform, or with tags, fused parts or gaps): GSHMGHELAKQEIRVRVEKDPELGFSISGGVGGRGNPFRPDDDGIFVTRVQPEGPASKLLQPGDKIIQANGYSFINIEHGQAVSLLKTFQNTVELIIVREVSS
Set-up: key: below the threshold = too weak to quantify, mostly under pKd 3.1 to 4
A pKd of 3.71 was found for DDPSTAETVL [ABCA7, Q8IZY2] in this work.
A pKd of 4.11 was found for HLRARKSEWV [GJD4, Q96KN9] in this work.

Each binder was assayed against IL16_4, Q14005 (assay: holdup assay). Conditions: plain residues with an end cap or a label only (N-terminal biotin on a linker: ado-ado).
IL16_4, Q14005, sequence (Q14005 1229-1329): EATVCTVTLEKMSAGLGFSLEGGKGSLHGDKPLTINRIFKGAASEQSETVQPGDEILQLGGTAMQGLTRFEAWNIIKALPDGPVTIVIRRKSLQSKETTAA
Set-up: key: below the threshold = too weak to quantify, mostly under pKd 3.1 to 4
DDPSTAETVL [ABCA7, Q8IZY2] was tested, and the pKd was “below the threshold”.
For HLRARKSEWV [GJD4, Q96KN9], the pKd was “below the threshold”.
